Experimental data: US8541373B2, “BChE albumin fusions for the treatment of cocaine abuse” (priority 2009, dated 2013)
Values joined by “and” are separate entries in the source; they are usually repeats but may differ in a detail not shown here. Equal values may be shown once. Read-outs that look alike come from different tables or passages of the source.

How the values were obtained:
[1] = AlbuBChE serum pharmacokinetics after single 5 mg/kg IM dose (ELISA); details: for AlbuBChE serum concentration, individual Squirrel monkeys: 5 mg/kg IM
Description: To evaluate AlbuBChE pharmacokinetics and pharmacodynamics following a single 5 mg/kg intramuscular injection of AlbuBChE to Squirrel monkeys. AlbuBChE pharmacodynamic effect was measured following cocaine IV administration at a dose of 1 mg/kg in control animals or at 2, 72 and 96 hr post-AlbuBChE dose.
Blood samples (0.4 mL) were collected from the femoral vein and placed into serum separator tubes (SST) at pre-dose, 24, 72, 96 & 336 hrs post-dose (samples collected at 336 hr (14 days) post-dose were intended to evaluate immunogenicity. The samples were also analyzed for AlbuBChE concentration). Tubes were maintained at room temperature for at least 1 hour, but not to exceed 4 hours prior to centrifugation. Samples were centrifuged and at least 200 μL of serum was harvested and maintained on dry ice prior to storage at approximately −70° C.
Blocking is done with 2% casein in phosphate buffered saline (PBS), 200 μL/well, 2 hours at room temperature. After washing, 100 μL of diluted serum samples are added to the plates along with standards. Standards are generated through 2.6 fold, serial dilution of AlbuBChE from 420 to 5.2 ng/mL. Serum samples and standards are maintained at 10% serum by dilution with buffer containing pooled cynomolgus monkey serum. A wash step precedes detection with 100 μl of anti-HSA mAb-6502-HRP at 0.04 μg/mL for 1 hour. Wells are washed again, prior to developing with 100 μl, of tetramethylbenzidine substrate. After 15 minutes the reaction is terminated with 100 μL/well of 1N H2SO4 and read on SpectraMax plate reader at 450/570 nm. Values for unknown serum samples are calculated by interpolation of standard curve generated by 5-parameter fit of AlbuBChE standards. Serum samples collected at predose and on Day 14 postdose were also analyzed for immunogenicity.
AlbuBChE pharmacokinetic parameter values were determined using serum concentration-time profiles for individual animals. The computer software WinNonlin Professional (Version 4.0.1 Pharsight Corporation, USA) was used. Specifically the model for non-compartmental analysis with extravascular input was applied.

[2] = system: cocaine discriminative-stimulus effects; assay: Drug discrimination in methamphetamine-trained monkeys; format: in vivo, squirrel monkeys
[3] = Previous pharmacokinetic study, SC, IM and IV administration (bioavailability); details: previous study in cynomolgus monkeys
Description: AlbuBChE absolute bioavailability for IM and Sc routes of administration was calculated relative to IV at the […] dose level.
In a previous study, AlbuBChE pharmacokinetic profile was evaluated in cynomolgus monkeys. In that study, the test article was administered SC (7.8, 2.4 and 0.78 mg/kg), IM (2.4 mg/kg) and IV (2.4 mg/kg). […] In addition, AlbuBChE IM dose levels of 0.2, 1 and 5 mg/kg were selected to define AlbuBChE pharmacodynamic range in cynomolgus monkeys.

[4] = Clinical study: safety, tolerability and immunogenicity of single IM AlbuBChE; format: in vivo, human; details: humans
Description: Forty (40) non-treatment seeking healthy adults who have used cocaine are randomly assigned to five (5) treatment groups. Each group will contain eight subjects. • Group A (low dose): Subjects receive a single, intramuscular injection of 50 mg of AlbuBChE. • Group B (intermediate dose): Subjects receive a single, intramuscular injection of 100 mg of AlbuBChE. • Group C (high-intermediate dose): Subjects receive a single, intramuscular injection of 150 mg of AlbuBChE. • Group D (high dose): Subjects receive a single, intramuscular injection of 300 mg of AlbuBChE. • Group E (negative control): Subjects receive a single, intramuscular injection of placebo.
Vital signs, including blood pressure, heart rate (part of the PD parameters) and body temperature are monitored. […]. Telemetry is performed for 4 hours immediately after each cocaine injection.
Local tolerability and pain (evaluated by the visual analogue scale (VAS)) at the injection site are evaluated during the first 24 h after dosing. Timepoints are: 20 min, 1, 2, 4, 8 and 24 hours post AlbuBChE dose.
Samples for immunogenic levels are collected but are not all necessarily assayed. Titers for antibodies against HSA, human butyryl cholinesterase (hBChE) and AlbuBChE are evaluated. Sampling timepoints are: pre-dose and 168 hours (Day 8), 240 hours (Day 11) and follow-up (Day 18±2) post-dose. The blood tests for IG assays take place before administration of cocaine (where relevant).

[5] = system: cocaine subjective effects; assay: Clinical study: subjective effects of cocaine (visual analogue scale); format: in vivo, human; details: humans
Description: Subjective effects are measured using a computerized (21 CFR 11 validated) visual analogue scale (VAS). The time points for collection of subjective effects match with those for cocaine blood samples. The following set of VAS are: Drug Liking, Take Drug Again, Overall Drug Liking, High, Good Effects, Bad Effects, Feeling Rush, Desire for Cocaine, Feeling Anxious, Over-Stimulated, and Any Drug Effects.
PD sampling timepoints of VAS parameters after each cocaine dose are as follows: pre-dose, 2, 5, 10, 15, 30, 45, 60, 90, and 120 minutes post dose.

[6] = rats, i.v. injection, cited from earlier work
[7] = individual Squirrel monkeys, single IM 5 mg/kg
[8] = individual Squirrel monkeys, single IM 5 mg/kg, apparent, first sample at 24 hr
[9] = mean of 3 Squirrel monkeys, single IM 5 mg/kg

Substance: AlbuBChE
- AlbuBChE serum concentration, individual Squirrel monkeys ([1]; 24 hr post dose): 2340.2 ng/mL and 2296.7 ng/mL and 2036.7 ng/mL
- AlbuBChE serum concentration, individual Squirrel monkeys ([1]; 72 hr post dose): 436.9 ng/mL and 517.7 ng/mL and 433.7 ng/mL
- AlbuBChE serum concentration, individual Squirrel monkeys ([1]; 96 hr post dose): 247.5 ng/mL (2×) and 233.5 ng/mL
- AlbuBChE serum concentration, individual Squirrel monkeys ([1]; 336 hr post dose): 23.4 ng/mL and 19.0 ng/mL and 7.0 ng/mL
- t½ ([1]; individual Squirrel monkeys (MKY 547, 3434, 53B), single IM 5 mg/kg AlbuBChE, serum, non-compartmental): 58.8 h and 45.5 h and 65.5 h
- AUC % Extrap [1, 7]: 1.17% and 0.380% and 1.61%
- AUC(0-t) [1, 7]: 136.268 µg·h/mL and 120.596 µg·h/mL and 135.454 µg·h/mL
- AUC(0-∞) [1, 7]: 137.881 µg·h/mL and 121.056 µg·h/mL and 137.666 µg·h/mL
- Cmax [1, 8]: 2297 ng/mL and 2037 ng/mL and 2340 ng/mL
- tmax [1, 8]: 24 h
- AUC(0-t) Mean [1, 9]: 130.773 µg·h/mL
- AUC(0-∞) Mean [1, 9]: 132.201 µg·h/mL
- Generalization of cocaine to the methamphetamine cue ([2]; 5 mg/kg 2 hrs prior, 0.3 mg/kg cocaine): failed to generalize
- Substitution of cocaine for methamphetamine ([2]; 5 mg/kg 2 hrs prior, 1.0 mg/kg cocaine): approximately 70%
- Generalization of cocaine to the methamphetamine cue ([2]; 24 hrs following AlbuBChE, 0.3 mg/kg cocaine): approximately 70%
- Generalization of cocaine to the methamphetamine cue ([2]; 24 hrs following AlbuBChE, 1.0 mg/kg cocaine): fully generalized
- Generalization of cocaine to the methamphetamine cue ([2]; 48 hrs following AlbuBChE, 0.3 mg/kg cocaine): fully generalized
- Generalization of methamphetamine to the methamphetamine cue ([2]; AlbuBChE 2 hrs prior to methamphetamine dose-effect function): did not affect generalization
- Rate of responding in discrimination study ([2]; cocaine or methamphetamine treatment condition): did not affect the rate of responding
- Bioavailability ([3]; IM): 79%
- Bioavailability ([3]; SC): 35-39%
- Local tolerability and pain at the IM injection site [4]: acceptable
- Immune response ([4]; 50 mg to 300 mg single dose): does not provoke a significant immune response
- Safety ([4]; IM doses of 50 mg to 300 mg): No significant safety issues are observed
- Tolerability ([4]; IM doses of 50 mg to 300 mg): well tolerated
- Blood pressure after AlbuBChE ([4]; intramuscular injection): a significant increase in blood pressure is not observed
- VAS Bad Effects ([5]; following cocaine exposure): reduces the feeling of “bad effects”
- Duration of decreased desire to use cocaine ([5]; single administration): up to one week
- VAS Any Drug Effects ([5]; vs placebo): reduces the reporting of “any drug effects.”
- VAS Desire for Cocaine ([5]; vs placebo): decreases the desire for cocaine
- VAS Drug Liking ([5]; vs placebo): decreases cocaine liking
- VAS Feeling Anxious ([5]; vs placebo): reduces feelings of anxiousness
- VAS Feeling Rush ([5]; vs placebo): decreases subjective feeling of “rush”
- VAS Good Effects ([5]; vs placebo): decreases the subjective feeling of “good effects”
- VAS High ([5]; vs placebo): decreases the “high”
- VAS Over-Stimulated ([5]; vs placebo): reduces feelings of being over-stimulated
- VAS Overall Drug Liking ([5]; vs placebo): decreases overall drug liking
- VAS Take Drug Again ([5]; vs placebo): decreases the desire to take cocaine again
- Plasma half-life [6]: approximately 8 hours
- Plasma half-life ([6]; listed as BChE-albumin fusion): 8 h
